Literature values, collected in paper PMC11941745.

What was measured:
[1] = target: flotillin-1 (Homo sapiens) (UniProt O75955); assay: SPR
[2] = target: flotillin-2 (Homo sapiens) (UniProt Q14254); assay: SPR
Sequence of UniProt Q14254 (Q14254 2-428): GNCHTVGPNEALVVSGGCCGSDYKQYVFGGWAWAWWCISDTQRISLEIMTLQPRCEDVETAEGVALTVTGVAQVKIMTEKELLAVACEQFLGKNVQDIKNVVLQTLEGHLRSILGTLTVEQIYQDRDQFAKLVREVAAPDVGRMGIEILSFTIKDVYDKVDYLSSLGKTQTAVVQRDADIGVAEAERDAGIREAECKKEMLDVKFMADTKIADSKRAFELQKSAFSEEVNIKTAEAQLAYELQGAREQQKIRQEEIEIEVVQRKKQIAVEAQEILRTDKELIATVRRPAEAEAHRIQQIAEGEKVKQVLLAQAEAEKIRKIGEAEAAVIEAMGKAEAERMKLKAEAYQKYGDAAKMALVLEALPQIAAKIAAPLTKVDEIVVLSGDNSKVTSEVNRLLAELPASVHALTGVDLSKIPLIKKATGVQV

Sequence of UniProt O75955 (O75955 whole entry): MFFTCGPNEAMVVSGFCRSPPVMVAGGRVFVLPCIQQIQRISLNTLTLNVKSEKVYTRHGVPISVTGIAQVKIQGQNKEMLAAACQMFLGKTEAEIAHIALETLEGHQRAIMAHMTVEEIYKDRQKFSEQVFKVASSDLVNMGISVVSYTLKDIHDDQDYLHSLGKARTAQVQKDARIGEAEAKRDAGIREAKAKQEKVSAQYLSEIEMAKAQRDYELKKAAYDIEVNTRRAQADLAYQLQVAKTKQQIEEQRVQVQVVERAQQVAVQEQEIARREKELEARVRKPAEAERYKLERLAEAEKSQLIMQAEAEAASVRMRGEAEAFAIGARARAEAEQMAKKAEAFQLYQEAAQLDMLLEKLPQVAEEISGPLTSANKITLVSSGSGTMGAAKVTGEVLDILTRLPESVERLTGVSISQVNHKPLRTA

Kd [1]: 18.1 nM | Kd [2]: 24.8 nM
Substance: MPP1 (from UniProt Q00013)
